Source: patent US7101843B2, “Glucagon-like peptide-1 analogs” (Eli Lilly and Company, priority 2001, dated 2006)
Values joined by “and” are separate entries in the source; they are usually repeats but may differ in a detail not shown here. Equal entries are not always repeated.

Legend:
[1] = biological target: GLP-1 receptor (Homo sapiens, UniProt P43220); test: GLP-1 receptor activation in vitro; assay type: cell-based; conditions: Val^8-GLP-1(7-37)OH = 1.0, several values in a cell are repeat determinations
Source text: “Insulinotropic activity” refers to the ability to stimulate insulin secretion in response to elevated glucose levels, thereby causing glucose uptake by cells and decreased plasma glucose levels. […] The entire teachings of these references are incorporated herein by reference.
The entire teachings of these references are incorporated herein by reference.

[2] = system: plasma insulin and plasma glucose; test: Intravenous glucose tolerance test (IVGTT) in rats; assay type: in vivo, wistar male rats; conditions: plasma insulin after injection (figures)
Description: FIG. 1 graphs plasma insulin and plasma glucose concentrations obtained at various time points after injection of increasing concentrations of Val^8-GLP-1(7–37)OH in rats.
FIG. 2 graphs plasma insulin concentrations obtained at various time points after injection of increasing concentrations of Val^8-Glu^22-Val^25-Ile^33-GLP-1 (7–37)OH in rats.
A double cannulation procedure was performed on fasting wistar male rats to facilitate injection of solutions and withdrawal of blood. Rats were injected through the jugular cannula with a bolus of 10% glucose solution followed by a solution containing a specific amount of a GLP-1 compound. Rats were injected with 0.01, 0.03, 0.1, 0.3, 1, and 10 μg/kg of GLP-1 compound. Blood was collected through the carotid cannula 2, 4, 6, 10, and 30 minutes following the injection of GLP-1 compound and analyzed. Plasma insulin and plasma glucose levels were measured in each sample. Average insulin and glucose levels are illustrated in FIGS. 1, 2, and 3.

[3] = GLP aggregation assay (turbidity at 350 nm, time to onset of aggregation); assay type: physicochemical; conditions: for aggregation time: at 30° C., stirred solution, pH 7.4
Description: GLP peptides of this invention were analyzed with respect to their potential to aggregate in solution. In general, peptides in solution were stirred at elevated temperature in a suitable buffer while recording turbidity at 350 nm as a function of time. Time to the onset of aggregation was measured to quantify the potential of a given GLP molecule to aggregate under these stressed conditions.
A GLP-1 compound was first dissolved under alkaline conditions (pH 10.5) for 30 minutes to dissolve any pre-aggregated material. The solution was then adjusted to pH 7.4 and filtered. Specifically, 4 mg of a lyophilized GLP-1 compound was dissolved in 3 ml of 10 mM phosphate/10 mM citrate. The pH was adjusted to 10.0–10.5 and held for 30 minutes. The solution was adjusted with HCl to pH 7.4 and filtered through a suitable filter, for example a Millex GV syringe filter (Millipore Corporation, Bedford, Mass.). […] Every five minutes the turbidity of the solution was measured at 350 nm on an AVIV Model 14DS UV-VIS spectrophotometer (Lakewood, N.J.). For 30 seconds prior to and during the measurement the solution was stirred using a magnetic stir bar from Starna Cells, Inc. (Atascadero, Calif.). An increase in OD at 350 nm indicates aggregation of the GLP-peptide. The time to aggregation was approximated by the intersection of linear fits to the pre-growth and growth phase according to method of Drake (Arvinte T, Cudd A, and Drake A F. (1993) J. Bio. Chem. 268, 6415–6422).

Chain of GLP-1 receptor (P43220 24-463, species assumed): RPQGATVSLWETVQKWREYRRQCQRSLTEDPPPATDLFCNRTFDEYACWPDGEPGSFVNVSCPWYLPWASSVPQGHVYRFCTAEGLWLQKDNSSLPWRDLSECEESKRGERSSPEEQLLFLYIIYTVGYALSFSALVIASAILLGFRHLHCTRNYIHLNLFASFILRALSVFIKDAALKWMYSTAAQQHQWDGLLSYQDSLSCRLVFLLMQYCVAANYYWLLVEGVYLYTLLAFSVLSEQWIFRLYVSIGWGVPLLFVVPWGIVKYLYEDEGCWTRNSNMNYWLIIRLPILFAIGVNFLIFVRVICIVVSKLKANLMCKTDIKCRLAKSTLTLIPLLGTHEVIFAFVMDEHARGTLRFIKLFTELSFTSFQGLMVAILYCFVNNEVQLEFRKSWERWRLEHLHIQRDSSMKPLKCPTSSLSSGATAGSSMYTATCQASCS

Row | Substance | GLP-1 receptor activation relative to Val^8-GLP-1(7-37)OH [1] | in vivo potency compared to Val^8-GLP-1(7–37)OH [2] | aggregation time [3] | propensity to aggregate in solution compared to Val^8-GLP-1(7–37)OH [3]
1 | Val^8-Glu^22-Ile^33-GLP-1(7-37)OH (HVEGTFTSDVSSYLEEQAAKEFIAWLIKGRG) [GLP-1 analog] | 4.7 and 3.8 and 3.4 |  |  | 
2 | Val^8-Glu^22-Val^25-Ile^33-GLP-1(7-37)OH (HVEGTFTSDVSSYLEEQAVKEFIAWLIKGRG) [GLP-1 analog] | 4.9 and 5.8 and 6.7 | higher in vivo potency |  | 
3 | Val^8-Glu^30-GLP-1(7-37)OH (HVEGTFTSDVSSYLEGQAAKEFIEWLVKGRG) [GLP-1 analog] |  |  | approximately 30 hours | markedly decreased propensity to aggregate
4 | Val^8-Glu^22-GLP-1(7–37)OH |  |  | approximately 72 hours | markedly decreased propensity to aggregate
5 | Val^8-His^37-GLP-1(7-37)OH (HVEGTFTSDVSSYLEGQAAKEFIAWLVKGRH) [GLP-1 analog] |  |  | greater than 40 hours | markedly decreased propensity to aggregate

The next lines start with results.

Row | GLP-1 receptor activation relative to Val^8-GLP-1(7-37)OH [1] | Substance | in vivo potency compared to Val^8-GLP-1(7–37)OH [2] | aggregation time [3] | propensity to aggregate in solution compared to Val^8-GLP-1(7–37)OH [3]
6 | 5.1 and 5.9 | Val^8-Tyr^18-Glu^22-GLP-1(7-37)OH (HVEGTFTSDVSYYLEEQAAKEFIAWLVKGRG) [GLP-1 analog] |  |  | 
7 | 3.6 and 3.8 and 4.9 and 4.6 | Val^8-Tyr^16-Glu^22-GLP-1(7-37)OH (HVEGTFTSDYSSYLEEQAAKEFIAWLVKGRG) [GLP-1 analog] |  |  | 
8 | 4.7 and 2.9 | Val^8-Glu^22-Val^25-GLP-1(7-37)OH (HVEGTFTSDVSSYLEEQAVKEFIAWLVKGRG) [GLP-1 analog] |  |  | 
